Numbering of substitutions follows the chain as printed. Numbers in names are those of the source. Each block holds one binder with its values, some of them ahead of it.
Key:
[1] = target: T1, DR3 (Death Receptor 3) natively expressed on human TF-1 cells (human, UniProt Q93038 25-417); test: TF-1 cell caspase activation assay
T1 construct: whole, on cells; also called TNFRSF25
T1 sequence (looked up): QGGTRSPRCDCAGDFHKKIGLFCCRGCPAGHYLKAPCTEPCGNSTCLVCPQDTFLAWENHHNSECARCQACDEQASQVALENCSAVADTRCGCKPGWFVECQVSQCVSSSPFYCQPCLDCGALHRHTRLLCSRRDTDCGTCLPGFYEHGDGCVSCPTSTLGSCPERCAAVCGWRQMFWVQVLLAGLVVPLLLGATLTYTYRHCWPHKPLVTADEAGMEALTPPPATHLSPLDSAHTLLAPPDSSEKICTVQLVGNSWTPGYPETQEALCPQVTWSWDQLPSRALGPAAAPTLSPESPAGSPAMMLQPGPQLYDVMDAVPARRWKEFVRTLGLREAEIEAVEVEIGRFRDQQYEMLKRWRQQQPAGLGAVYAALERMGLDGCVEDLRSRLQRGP
Description: TF-1 cells are human erythroleukemic cells that natively express DR3, the functional receptor for TL1A.

recombinant TL1A antigen = target: T2, recombinant TL1A antigen (UniProt O95150 72-251, limits assumed); test: ELISA titration against recombinant TL1A antigen
T2 sequence (looked up): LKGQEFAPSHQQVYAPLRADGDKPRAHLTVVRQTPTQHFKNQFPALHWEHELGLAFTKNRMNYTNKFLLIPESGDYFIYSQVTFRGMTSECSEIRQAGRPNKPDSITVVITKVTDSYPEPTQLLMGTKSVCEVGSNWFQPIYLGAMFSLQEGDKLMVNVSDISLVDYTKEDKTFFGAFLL

human TL1A = target: T3, human TL1A (human, UniProt O95150 72-251, limits assumed); test: ELISA titration on plate-coated human TL1A, unpurified culture supernatant
T3 construct: also called tumor necrosis factor-like cytokine 1A; TNFSF15
T3 sequence (looked up): T2 sequence (looked up)

TL1A in human blood [2] = target: T4, TL1A in human blood (human, UniProt O95150 72-251, limits assumed); test: cell-based or functional assay
T4 sequence (looked up): T2 sequence (looked up)

TL1A in human blood [3] = target: T4, TL1A in human blood; test: cell-based or functional assay; remark: listed apart in the source

B1: recombinant human TL1A protein (tumor necrosis factor-like cytokine 1A) (ligand, UniProt O95150 72-251, looked up)
chain: T2 sequence (looked up)
notes: Recombinant protein used in ELISA, SPR and the TF-1 caspase assay; also called TNFSF15; soluble TL1A
- binding result [1]: binds

- EC50 (recombinant TL1A antigen): 0.252 nM
B2: anti-TL1A antibody with heavy chain SEQ ID NO: 380 (IgG4, S228P, F234A, L235A; Fc SEQ ID NO: 367) and light chain SEQ ID NO: 381 (antibody)
heavy: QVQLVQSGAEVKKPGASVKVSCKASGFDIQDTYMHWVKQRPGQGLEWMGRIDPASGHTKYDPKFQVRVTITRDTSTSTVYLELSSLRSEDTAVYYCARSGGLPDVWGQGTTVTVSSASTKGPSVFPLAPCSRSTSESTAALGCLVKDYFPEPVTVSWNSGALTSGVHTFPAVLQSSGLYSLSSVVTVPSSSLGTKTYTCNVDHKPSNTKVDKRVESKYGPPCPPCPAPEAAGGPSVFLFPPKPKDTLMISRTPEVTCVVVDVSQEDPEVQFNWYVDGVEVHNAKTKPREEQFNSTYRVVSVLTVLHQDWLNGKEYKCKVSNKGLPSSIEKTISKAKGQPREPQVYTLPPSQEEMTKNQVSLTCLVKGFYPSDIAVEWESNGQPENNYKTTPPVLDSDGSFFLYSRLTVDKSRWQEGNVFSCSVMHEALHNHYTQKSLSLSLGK
light: EIVLTQSPGTLSLSPGERATLSCRASSSVSYMYWYQQKPGQAPRPLIYATSNLASGIPDRFSGSGSGTDFTLTISRLEPEDFAVYYCQQWEGNPRTFGGGTKLEIKRTVAAPSVFIFPPSDEQLKSGTASVVCLLNNFYPREAKVQWKVDNALQSGNSQESVTEQDSKDSTYSLSSTLTLSKADYEKHKVYACEVTHQGLSSPVTKSFNRGEC

- Kd (human TL1A): 0.07 nM
B3: A210 (antibody, IgG1, V domains shown)
VH: EVQLVQSGAEVKKPGASVKVSCKASGFDIQDTYMHWVRQAPGQGLEWMGRIEPASGHIKYDPKFQGRVTMTRDTSTSTAYMELSSLRSEDTAVYYCARSGGLPDWWGQGTTVTVSS
VL: EIVLTQSPGTLSLSPGERATLSCRASSSVSYMYWYQQKPGQAPRLLIYATSNLASGIPDRFSGSGSGTDFTLTISRLEPEDFAVYYCQQWEGNPRTFGGGTKLEIK

- % Inhibition at 1 nM Ig; interferon gamma release in human blood (TL1A in human blood [2]): 51.3%
- % Inhibition at 10 nM Ig; interferon gamma release in human blood (TL1A in human blood [2]): 72.4%
B4: A147 (antibody, IgG1, V domains shown)
VH: B3 VH with E1Q, R38K, A40R, A79V
VL: B3 VL with L45P

- Kd (human TL1A): 0.058 nM
B5: A211 (antibody, IgG1, V domains shown)
VH: QVQLVQSGAEVKKPGASVKVSCKASGFDIQDTYMHWVKQRPGQGLEWIGRIDPASGHTKYDPKFQVRATITTDTSTSTAYLELSSLRSEDTAVYYCARSGGLPDVWGQGTTVTVSS
VL: B3 VL with L45P

- % Inhibition at 1 nM Ig; interferon gamma release in human blood (TL1A in human blood [2]): 46.8%
- % Inhibition at 10 nM Ig; interferon gamma release in human blood (TL1A in human blood [2]): 71.2%
- IC50 values, Mean; inhibition of interferon gamma release from multiple human donors (TL1A in human blood [3]): 51.3
- Kd (human TL1A): 0.05 nM
B6: A212 (antibody, IgG1, V domains shown)
VH: B5 VH with K38R
VL: B3 VL with L45P

- % Inhibition at 1 nM Ig; interferon gamma release in human blood (TL1A in human blood [2]): 36.9%
- % Inhibition at 10 nM Ig; interferon gamma release in human blood (TL1A in human blood [2]): 63.2%
- Kd (human TL1A): 0.05 nM
B7: A220 (antibody, IgG1, V domains shown)
VH: B5 VH with I48M, A68V, I70M, T72R
VL: B3 VL with L45P, L46W

- Kd (human TL1A): 0.076 nM
B8: A224 (antibody, IgG1, V domains shown)
VH: B3 VH with R38K, A79V
VL: B3 VL with L45P

- Kd (human TL1A): 0.049 nM
B9: A216 (antibody, IgG1, V domains shown)
VH: B5 VH with K38R, A68V, T72R
VL: B3 VL with L45P

- Kd (human TL1A): 0.051 nM
B10: A214 (antibody, IgG1, V domains shown)
VH: B5 VH with K38R, I48M, A68V, T72R
VL: B3 VL with L45P

- Kd (human TL1A): 0.062 nM
B11: A223 (antibody, IgG1, V domains shown)
VH: B5 VH with Q1E, K38R
VL: B3 VL

- % Inhibition at 1 nM Ig; interferon gamma release in human blood (TL1A in human blood [2]): 48.6%
- % Inhibition at 10 nM Ig; interferon gamma release in human blood (TL1A in human blood [2]): 69.8%
- IC50 values, Mean; inhibition of interferon gamma release from multiple human donors (TL1A in human blood [3]): 46.8
- Kd (human TL1A): 0.049 nM
B12: A213 (antibody, IgG1, V domains shown)
VH: B5 VH with K38R, I48M, A68V, A79V, L81M
VL: B3 VL with L45P

- % Inhibition at 1 nM Ig; interferon gamma release in human blood (TL1A in human blood [2]): 46%
- % Inhibition at 10 nM Ig; interferon gamma release in human blood (TL1A in human blood [2]): 72.2%
- Kd (human TL1A): 0.043 nM
B13: A217 (antibody, IgG1, V domains shown)
VH: B5 VH with I48M, A68V, T72R, A79V, L81M
VL: B3 VL with L45P

- Kd (human TL1A): 0.06 nM
B14: A222 (antibody, IgG1, V domains shown)
VH: B5 VH with I48M, A68V, T72R
VL: B3 VL with L45P

- Kd (human TL1A): 0.051 nM
B15: A218 (antibody, IgG1, V domains shown)
VH: B5 VH with I48M, A68V, T72R, L81M
VL: B3 VL with L45P

- Kd (human TL1A): 0.048 nM
B16: A215 (antibody, IgG1, V domains shown)
VH: B5 VH with K38R, I48M, A68V
VL: B3 VL with L45P

From patent publication US20260216326A1 (PROMETHEUS BIOSCIENCES, published 2026)
